Test results as given in the Immune Epitope Database (IEDB).

What was measured:
[1] = target: HLA-A*02:01; assay: IEDB peptide-MHC binding, purified MHC/competitive/fluorescence; ≥ and ≤ were set here for values at or beyond the usual limits of such assays; conditions: source organism: Vaccinia virus
[2] = target: HLA-B*08:01; assay: as above; conditions: source organism: Vaccinia virus
[3] = target: HLA-B*15:01; assay: as above; conditions: source organism: Vaccinia virus
[4] = target: HLA-A*24:02; assay: as above; conditions: source organism: Vaccinia virus
[5] = target: HLA-B*07:02; assay: as above; conditions: source organism: Vaccinia virus
[6] = target: HLA-B*18:01; assay: IEDB peptide-MHC binding, purified MHC/direct/fluorescence; filed as Kd, often an IC50 or EC50 that approximates it; ≥ and ≤ were set here for values at or beyond the usual limits of such assays; conditions: source organism: Yellow fever virus 1899/81
[7] = target: HLA-B*83:01; assay: IEDB peptide-MHC binding, purified MHC/competitive/fluorescence; filed as Kd, often an IC50 or EC50 that approximates it; ≥ and ≤ were set here for values at or beyond the usual limits of such assays
[8] = target: HLA-B*45:06; assay: as above
[9] = target: HLA-B*15:42; assay: as above
[10] = target: HLA-B*08:02; assay: IEDB peptide-MHC binding, purified MHC/direct/fluorescence; filed as Kd, often an IC50 or EC50 that approximates it; ≥ and ≤ were set here for values at or beyond the usual limits of such assays; conditions: source organism: Listeria monocytogenes serotype 4b str. H7858
[11] = target: HLA-A*02:16; assay: as above; conditions: source organism: Orthohantavirus tulaense
[12] = target: HLA-A*02:03; assay: as above; conditions: source organism: Orthohantavirus tulaense
[13] = target: HLA-A*02:12; assay: as above; conditions: source organism: Orthohantavirus tulaense
[14] = target: HLA-A*02:19; assay: as above; conditions: source organism: Orthohantavirus tulaense
[15] = target: HLA-A*02:11; assay: as above; conditions: source organism: Orthohantavirus tulaense
[16] = target: HLA-A*24:03; assay: as above; conditions: source organism: Orthohantavirus tulaense
[17] = target: HLA-A*68:02; assay: as above; conditions: source organism: Orthohantavirus tulaense
[18] = target: HLA-A*31:01; assay: IEDB peptide-MHC binding, purified MHC/competitive/fluorescence; filed as Kd, often an IC50 or EC50 that approximates it; ≥ and ≤ were set here for values at or beyond the usual limits of such assays; conditions: source organism: Orthohantavirus tulaense
[19] = target: HLA-B*51:01; assay: as above; conditions: source organism: Orthohantavirus tulaense
[20] = target: HLA-A*26:01; assay: as above; conditions: source organism: Orthohantavirus tulaense
[21] = target: HLA-B*46:01; assay: as above; conditions: source organism: Orthohantavirus tulaense
[22] = target: HLA-A*69:01; assay: as above; conditions: source organism: Orthohantavirus tulaense
[23] = target: HLA-B*57:01; assay: as above; conditions: source organism: Orthohantavirus tulaense
[24] = target: HLA-B*15:01; assay: as above; conditions: source organism: Orthohantavirus tulaense
[25] = target: HLA-B*18:01; assay: as above; conditions: source organism: Orthohantavirus tulaense
[26] = target: HLA-A*03:01; assay: as above; conditions: source organism: Orthohantavirus tulaense
[27] = target: HLA-B*27:03; assay: as above; conditions: source organism: Orthohantavirus tulaense
[28] = target: HLA-B*39:01; assay: as above; conditions: source organism: Orthohantavirus tulaense
[29] = source organism: Yellow fever virus 1899/81
[30] = source organism: Orthohantavirus tulaense

GMLRFANPL
IC50 [1]: 0.651 µM
IC50 [2]: 11.8 µM
IC50 [3]: 1.69 µM
IC50 [4]: 8.07 µM
IC50 [5]: 5.38 µM

HEVNGTWMI
Kd [6]: 0.009 µM
Kd [7, 29]: ≥ 5 µM
Kd [8, 29]: ≥ 5 µM
Kd [9, 29]: ≥ 5 µM

ILKERKQAL
Kd [10]: 1.62 µM

ILMARYMSK
Kd [11]: ≥ 20 µM
Kd [12]: ≥ 20 µM
Kd [13]: ≥ 20 µM
Kd [14]: ≥ 20 µM
Kd [15]: ≥ 20 µM
Kd [16]: ≥ 20 µM
Kd [17]: ≥ 20 µM
Kd [18]: 0.0152 µM
Kd [19]: ≥ 20 µM
Kd [20]: ≥ 20 µM
Kd [21]: ≥ 20 µM
Kd [22]: ≥ 20 µM
Kd [23]: ≥ 20 µM
Kd [24]: ≥ 20 µM
Kd [25]: ≥ 20 µM
Kd [7, 30]: ≥ 5 µM
Kd [26]: 0.0628 µM
Kd [8, 30]: ≥ 5 µM
Kd [27]: ≥ 20 µM
Kd [9, 30]: ≥ 5 µM
Kd [28]: ≥ 20 µM
